In patent US6045793, “Recombinant ribonuclease proteins” (dated 2000):

How the values were obtained:
Assay in all cases: cell-based or functional assay
Native ONCONASE = target: T1, Native ONCONASE (Rana pipiens, pyroglutamyl amino acid residue (<Glu-1) at the amino terminus)
T1 chain: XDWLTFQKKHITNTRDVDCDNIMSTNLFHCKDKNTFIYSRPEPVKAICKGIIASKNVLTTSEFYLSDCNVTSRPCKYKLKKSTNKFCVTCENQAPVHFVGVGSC

[1] = target: T2, recombinant human eosinophil-derived neurotoxin (human)
T2 chain: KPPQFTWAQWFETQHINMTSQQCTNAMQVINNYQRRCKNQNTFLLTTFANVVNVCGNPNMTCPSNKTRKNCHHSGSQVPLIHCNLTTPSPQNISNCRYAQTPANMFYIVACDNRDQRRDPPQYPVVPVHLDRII

[Met-(-1)]rOnc = target: T3, [Met-(-1)]rOnc (Rana pipiens)
T3 chain: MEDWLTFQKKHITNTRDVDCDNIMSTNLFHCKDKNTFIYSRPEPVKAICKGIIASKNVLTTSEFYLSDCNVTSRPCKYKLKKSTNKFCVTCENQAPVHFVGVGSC

rEDN(1-21) rOnc = target: T4, rEDN(1-21) rOnc (human; Rana pipiens)
T4 chain: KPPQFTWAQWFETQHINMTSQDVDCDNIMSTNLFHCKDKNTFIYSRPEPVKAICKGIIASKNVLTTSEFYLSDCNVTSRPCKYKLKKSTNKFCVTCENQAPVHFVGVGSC

rEDN(1-21) rOncG26 = target: T5, rEDN(1-21) rOncG26 (human EDN part, Rana pipiens Onc part)
T5 chain: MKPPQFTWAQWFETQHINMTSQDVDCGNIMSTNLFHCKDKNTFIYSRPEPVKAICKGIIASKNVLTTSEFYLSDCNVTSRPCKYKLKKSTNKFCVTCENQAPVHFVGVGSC

[2] = target: transferrin receptor on SF539 human glioma cells (human, UniProt P02786)

B1: Placental ribonuclease inhibitor (other)
chain: SLDIQSLDIQCEELSDARWAELLPLLQQCQVVRLDDCGLTEARCKDISSALRVNPALAELNLRSNELGDVGVHCVLQGLQTPSCKIQKLSLQNCCLTGAGCGVLSSTLRTLPTLQELHLSDNLLGDAGLQLLCEGLLDPQCRLEKLQLEYCSLSAASCEPLASVLRAKPDFKELTVSNNDINEAGVRVLCQGLKDSPCQLEALKLESCGVTSDNCRDLCGIVASKASLRELALGSNKLGDVGMAELCPGLLHPSSRLRTLWIWECGITAKGCGDLCRVLRAKESLKELSLAGNELGDEGARLLCETLLEPGCQLESLWVKSCSFTAACCSHFSSVLAQNRFLLELQISNNRLEDAGVRELCQGLGQPGSVLRVLWLADCDVSDSSCSSLAATLLANHSLRELDLSNNCLGDAGILQLVESVRQPGCLLEQLVLYDIYWSEEMEDRLQALEKDKPSLRVIS
Fold Difference of IC50 (ng/ml) in rabbit reticulocyte lysate, (+)PRI against (-)PRI (Native ONCONASE): 1.2 fold | IC50 (ng/ml) of the RNase for inhibition of protein synthesis in rabbit reticulocyte lysate, (+)PRI (Native ONCONASE): 0.24 ng/mL | Fold Difference of IC50 (ng/ml) in rabbit reticulocyte lysate, (+)PRI against (-)PRI [1]: > 30.7 fold | Fold Difference of IC50 (ng/ml) in rabbit reticulocyte lysate, (+)PRI against (-)PRI ([Met-(-1)]rOnc): 1.4 fold | IC50 (ng/ml) of the RNase for inhibition of protein synthesis in rabbit reticulocyte lysate, (+)PRI ([Met-(-1)]rOnc): 140 ng/mL | Fold Difference of IC50 (ng/ml) in rabbit reticulocyte lysate, (+)PRI against (-)PRI (rEDN(1-21) rOnc): 2 fold | IC50 (ng/ml) of the RNase for inhibition of protein synthesis in rabbit reticulocyte lysate, (+)PRI (rEDN(1-21) rOnc): 3200 ng/mL | Fold Difference of IC50 (ng/ml) in rabbit reticulocyte lysate, (+)PRI against (-)PRI (rEDN(1-21) rOncG26): 21 fold | IC50 (ng/ml) of the RNase for inhibition of protein synthesis in rabbit reticulocyte lysate, (+)PRI (rEDN(1-21) rOncG26): 600 ng/mL

B2: E6FB[Met-(-1)Ser]rOnc (scFv)
chain: DIKMTQSPSSMYASLGERVTFTCKASQDINNYLCWFQQKPGKSPKTLIYRANRLVDGVPSRFSGSGSGQDYSLTISSLEYEDMGIYYCLQYDEFPYTFGGGTKLEIKGGGGSGGGGSGGGGSEVQLQQSGTVLARPGASVKMSCKASGYTFSSYWMHWIKQRPGQGLDWIVAIDPRNSDTIYNPQFKHKAKLTAVTSTSTAYMELNSLTNEDSAVYYCTPLYYFDSWGQGTTLTVSSAKKLNDAQAPKSDMSDWLTFQKKHITNTRDVDCDNIMSTNLFHCKDKNTFIYSRPEPVKAICKGIIASKNVLTTSEFYLSDCNVTSRPCKYKLKKSTNKFCVTCENQAPVHFVGVGSC
IC50 (nM), inhibition of protein synthesis in SF539 human glioma cells [2]: 0.22 nM

B3: [Met-(-1)Glu]rOncFBE6 (scFv)
chain: MEDWLTFQKKHITNTRDVDCDNIMSTNLFHCKDKNTFIYSRPEPVKAICKGIIASKNVLTTSEFYLSDCNVTSRPCKYKLKKSTNKFCVTCENQAPVHFVGVGSCAKKLNDAQAPKSDDIKMTQSPSSMYASLGERVTFTCKASQDINNYLCWFQQKPGKSPKTLIYRANRLVDGVPSRFSGSGSGQDYSLTISSLEYEDMGIYYCLQYDEFPYTFGGGTKLEIKGGGGSGGGGSGGGGSEVQLQQSGTVLARPGASVKMSCKASGYTFSSYWMHWIKQRPGQGLDWIVAIDPRNSDTIYNPQFKHKAKLTAVTSTSTAYMELNSLTNEDSAVYYCTPLYYFDSWGQGTTLTVSSHHH
IC50 (nM), inhibition of protein synthesis in SF539 human glioma cells [2]: 0.5 nM
